US8785135B2, “Mutant G-protein coupled receptors and methods for selecting them” (Heptares Therapeutics Limited, priority 2007, dated 2014)

Assay: Thermostability of NTR and mutants (3H-neurotensin binding)
Assay type: physicochemical
Settings: Ligand(+) format
Procedure: FIG. 12 Flow chart showing the two different assay formats of ligand (+) and ligand (−) used to determine receptor thermostability.
• 1. 340 site-directed mutants have been made between residues 61-400 of NTR. • 2. Initially, all of these mutants were assayed for thermostability using an assay measuring ^3H-neurotensin (agonist) binding after the heating step. […] Mutants tested for thermostability by heating in the absence of the agonist were re-tested using a slightly different assay where the mutants were heated in the presence of ^3H-neurotensin (Ligand(+) format in FIG. 12). […] All of these also have increased thermostability. • 5. Preferred combinations are • a. Nag7m F358A+A86L+I260A+F342A Tm 51° C. (neurotensin bound) • b. Nag7n F358A+H103A+I260A+F342A Tm 51° C. (neurotensin bound) • Wildtype NTR has a Tm of 35° C. with neurotensin bound.

Molecule	thermostability, heated in the presence of 3H-neurotensin
F358A: NTR point mutant (protein, UniProt P20789 1-424, looked up, variant F358A) Neurotensin receptor type 1: MHLNSSVPQGTPGEPDAQPFSGPQSEMEATFLALSLSNGSGNTSESDTAGPNSDLDVNTDIYSKVLVTAIYLALFVVGTVGNSVTAFTLARKKSLQSLQSTVHYHLGSLALSDLLILLLAMPVELYNFIWVHHPWAFGDAGCRGYYFLRDACTYATALNVASLSVERYLAICHPFKAKTLMSRSRTKKFISAIWLASALLAIPMLFTMGLQNRSGDGTHPGGLVCTPIVDTATVKVVIQVNTFMSFLFPMLVISILNTVIANKLTVMVHQAAEQGRVCTVGTHNGLEHSTFNMTIEPGRVQALRHGVLVLRAVVIAFVVCWLPYHVRRLMFCYISDEQWTTFLFDFYHYFYMLTNALAYVSSAINPILYNLVSANFRQVFLSTLACLCPGWRHRRKKRPTFSRKPNSMSSNHAFSTSATRETLY	improved thermostability

Same assay, conditions: heated in the absence of the agonist

Molecule	thermostability, 3H-neurotensin (agonist) binding after the heating step
F358A: NTR point mutant (protein, UniProt P20789 1-424, looked up, variant F358A) Neurotensin receptor type 1: MHLNSSVPQGTPGEPDAQPFSGPQSEMEATFLALSLSNGSGNTSESDTAGPNSDLDVNTDIYSKVLVTAIYLALFVVGTVGNSVTAFTLARKKSLQSLQSTVHYHLGSLALSDLLILLLAMPVELYNFIWVHHPWAFGDAGCRGYYFLRDACTYATALNVASLSVERYLAICHPFKAKTLMSRSRTKKFISAIWLASALLAIPMLFTMGLQNRSGDGTHPGGLVCTPIVDTATVKVVIQVNTFMSFLFPMLVISILNTVIANKLTVMVHQAAEQGRVCTVGTHNGLEHSTFNMTIEPGRVQALRHGVLVLRAVVIAFVVCWLPYHVRRLMFCYISDEQWTTFLFDFYHYFYMLTNALAYVSSAINPILYNLVSANFRQVFLSTLACLCPGWRHRRKKRPTFSRKPNSMSSNHAFSTSATRETLY	small but significant increase in thermostability
M181A: NTR point mutant (protein, UniProt P20789 1-424, looked up, variant M181A) Neurotensin receptor type 1: MHLNSSVPQGTPGEPDAQPFSGPQSEMEATFLALSLSNGSGNTSESDTAGPNSDLDVNTDIYSKVLVTAIYLALFVVGTVGNSVTAFTLARKKSLQSLQSTVHYHLGSLALSDLLILLLAMPVELYNFIWVHHPWAFGDAGCRGYYFLRDACTYATALNVASLSVERYLAICHPFKAKTLASRSRTKKFISAIWLASALLAIPMLFTMGLQNRSGDGTHPGGLVCTPIVDTATVKVVIQVNTFMSFLFPMLVISILNTVIANKLTVMVHQAAEQGRVCTVGTHNGLEHSTFNMTIEPGRVQALRHGVLVLRAVVIAFVVCWLPYHVRRLMFCYISDEQWTTFLFDFYHYFYMLTNALFYVSSAINPILYNLVSANFRQVFLSTLACLCPGWRHRRKKRPTFSRKPNSMSSNHAFSTSATRETLY	small but significant increase in thermostability
P399A: NTR point mutant (protein, UniProt P20789 1-424, looked up, variant P399A) Neurotensin receptor type 1: MHLNSSVPQGTPGEPDAQPFSGPQSEMEATFLALSLSNGSGNTSESDTAGPNSDLDVNTDIYSKVLVTAIYLALFVVGTVGNSVTAFTLARKKSLQSLQSTVHYHLGSLALSDLLILLLAMPVELYNFIWVHHPWAFGDAGCRGYYFLRDACTYATALNVASLSVERYLAICHPFKAKTLMSRSRTKKFISAIWLASALLAIPMLFTMGLQNRSGDGTHPGGLVCTPIVDTATVKVVIQVNTFMSFLFPMLVISILNTVIANKLTVMVHQAAEQGRVCTVGTHNGLEHSTFNMTIEPGRVQALRHGVLVLRAVVIAFVVCWLPYHVRRLMFCYISDEQWTTFLFDFYHYFYMLTNALFYVSSAINPILYNLVSANFRQVFLSTLACLCPGWRHRRKKRATFSRKPNSMSSNHAFSTSATRETLY	small but significant increase in thermostability
L72A: NTR point mutant (protein, UniProt P20789 1-424, looked up, variant L72A) Neurotensin receptor type 1: MHLNSSVPQGTPGEPDAQPFSGPQSEMEATFLALSLSNGSGNTSESDTAGPNSDLDVNTDIYSKVLVTAIYAALFVVGTVGNSVTAFTLARKKSLQSLQSTVHYHLGSLALSDLLILLLAMPVELYNFIWVHHPWAFGDAGCRGYYFLRDACTYATALNVASLSVERYLAICHPFKAKTLMSRSRTKKFISAIWLASALLAIPMLFTMGLQNRSGDGTHPGGLVCTPIVDTATVKVVIQVNTFMSFLFPMLVISILNTVIANKLTVMVHQAAEQGRVCTVGTHNGLEHSTFNMTIEPGRVQALRHGVLVLRAVVIAFVVCWLPYHVRRLMFCYISDEQWTTFLFDFYHYFYMLTNALFYVSSAINPILYNLVSANFRQVFLSTLACLCPGWRHRRKKRPTFSRKPNSMSSNHAFSTSATRETLY	small but significant increase in thermostability
L205A: NTR point mutant (protein, UniProt P20789 1-424, looked up, variant L205A) Neurotensin receptor type 1: MHLNSSVPQGTPGEPDAQPFSGPQSEMEATFLALSLSNGSGNTSESDTAGPNSDLDVNTDIYSKVLVTAIYLALFVVGTVGNSVTAFTLARKKSLQSLQSTVHYHLGSLALSDLLILLLAMPVELYNFIWVHHPWAFGDAGCRGYYFLRDACTYATALNVASLSVERYLAICHPFKAKTLMSRSRTKKFISAIWLASALLAIPMAFTMGLQNRSGDGTHPGGLVCTPIVDTATVKVVIQVNTFMSFLFPMLVISILNTVIANKLTVMVHQAAEQGRVCTVGTHNGLEHSTFNMTIEPGRVQALRHGVLVLRAVVIAFVVCWLPYHVRRLMFCYISDEQWTTFLFDFYHYFYMLTNALFYVSSAINPILYNLVSANFRQVFLSTLACLCPGWRHRRKKRPTFSRKPNSMSSNHAFSTSATRETLY	small but significant increase in thermostability
S108A: NTR point mutant (protein, UniProt P20789 1-424, looked up, variant S108A) Neurotensin receptor type 1: MHLNSSVPQGTPGEPDAQPFSGPQSEMEATFLALSLSNGSGNTSESDTAGPNSDLDVNTDIYSKVLVTAIYLALFVVGTVGNSVTAFTLARKKSLQSLQSTVHYHLGALALSDLLILLLAMPVELYNFIWVHHPWAFGDAGCRGYYFLRDACTYATALNVASLSVERYLAICHPFKAKTLMSRSRTKKFISAIWLASALLAIPMLFTMGLQNRSGDGTHPGGLVCTPIVDTATVKVVIQVNTFMSFLFPMLVISILNTVIANKLTVMVHQAAEQGRVCTVGTHNGLEHSTFNMTIEPGRVQALRHGVLVLRAVVIAFVVCWLPYHVRRLMFCYISDEQWTTFLFDFYHYFYMLTNALFYVSSAINPILYNLVSANFRQVFLSTLACLCPGWRHRRKKRPTFSRKPNSMSSNHAFSTSATRETLY	small but significant increase in thermostability
A120L: NTR point mutant (protein, UniProt P20789 1-424, looked up, variant A120L) Neurotensin receptor type 1: MHLNSSVPQGTPGEPDAQPFSGPQSEMEATFLALSLSNGSGNTSESDTAGPNSDLDVNTDIYSKVLVTAIYLALFVVGTVGNSVTAFTLARKKSLQSLQSTVHYHLGSLALSDLLILLLLMPVELYNFIWVHHPWAFGDAGCRGYYFLRDACTYATALNVASLSVERYLAICHPFKAKTLMSRSRTKKFISAIWLASALLAIPMLFTMGLQNRSGDGTHPGGLVCTPIVDTATVKVVIQVNTFMSFLFPMLVISILNTVIANKLTVMVHQAAEQGRVCTVGTHNGLEHSTFNMTIEPGRVQALRHGVLVLRAVVIAFVVCWLPYHVRRLMFCYISDEQWTTFLFDFYHYFYMLTNALFYVSSAINPILYNLVSANFRQVFLSTLACLCPGWRHRRKKRPTFSRKPNSMSSNHAFSTSATRETLY	small but significant increase in thermostability
R392A: NTR point mutant (protein, UniProt P20789 1-424, looked up, variant R392A) Neurotensin receptor type 1: MHLNSSVPQGTPGEPDAQPFSGPQSEMEATFLALSLSNGSGNTSESDTAGPNSDLDVNTDIYSKVLVTAIYLALFVVGTVGNSVTAFTLARKKSLQSLQSTVHYHLGSLALSDLLILLLAMPVELYNFIWVHHPWAFGDAGCRGYYFLRDACTYATALNVASLSVERYLAICHPFKAKTLMSRSRTKKFISAIWLASALLAIPMLFTMGLQNRSGDGTHPGGLVCTPIVDTATVKVVIQVNTFMSFLFPMLVISILNTVIANKLTVMVHQAAEQGRVCTVGTHNGLEHSTFNMTIEPGRVQALRHGVLVLRAVVIAFVVCWLPYHVRRLMFCYISDEQWTTFLFDFYHYFYMLTNALFYVSSAINPILYNLVSANFRQVFLSTLACLCPGWAHRRKKRPTFSRKPNSMSSNHAFSTSATRETLY	small but significant increase in thermostability
D113A: NTR point mutant (protein, UniProt P20789 1-424, looked up, variant D113A) Neurotensin receptor type 1: MHLNSSVPQGTPGEPDAQPFSGPQSEMEATFLALSLSNGSGNTSESDTAGPNSDLDVNTDIYSKVLVTAIYLALFVVGTVGNSVTAFTLARKKSLQSLQSTVHYHLGSLALSALLILLLAMPVELYNFIWVHHPWAFGDAGCRGYYFLRDACTYATALNVASLSVERYLAICHPFKAKTLMSRSRTKKFISAIWLASALLAIPMLFTMGLQNRSGDGTHPGGLVCTPIVDTATVKVVIQVNTFMSFLFPMLVISILNTVIANKLTVMVHQAAEQGRVCTVGTHNGLEHSTFNMTIEPGRVQALRHGVLVLRAVVIAFVVCWLPYHVRRLMFCYISDEQWTTFLFDFYHYFYMLTNALFYVSSAINPILYNLVSANFRQVFLSTLACLCPGWRHRRKKRPTFSRKPNSMSSNHAFSTSATRETLY	small but significant increase in thermostability
G209A: NTR point mutant (protein, UniProt P20789 1-424, looked up, variant G209A) Neurotensin receptor type 1: MHLNSSVPQGTPGEPDAQPFSGPQSEMEATFLALSLSNGSGNTSESDTAGPNSDLDVNTDIYSKVLVTAIYLALFVVGTVGNSVTAFTLARKKSLQSLQSTVHYHLGSLALSDLLILLLAMPVELYNFIWVHHPWAFGDAGCRGYYFLRDACTYATALNVASLSVERYLAICHPFKAKTLMSRSRTKKFISAIWLASALLAIPMLFTMALQNRSGDGTHPGGLVCTPIVDTATVKVVIQVNTFMSFLFPMLVISILNTVIANKLTVMVHQAAEQGRVCTVGTHNGLEHSTFNMTIEPGRVQALRHGVLVLRAVVIAFVVCWLPYHVRRLMFCYISDEQWTTFLFDFYHYFYMLTNALFYVSSAINPILYNLVSANFRQVFLSTLACLCPGWRHRRKKRPTFSRKPNSMSSNHAFSTSATRETLY	small but significant increase in thermostability

Same assay, conditions: neurotensin bound

Molecule	Tm [°C]
Nag7m: NTR mutant F358A+A86L+I260A+F342A (protein) TSESDTAGPNSDLDVNTDIYSKVLVTAIYLALFVVGTVGNSVTLFTLARKKSLQSLQSTVHYHLGSLALSDLLILLLAMPVELYNFIWVHHPWAFGDAGCRGYYFLRDACTYATALNVASLSVERYLAICHPFKAKTLMSRSRTKKFISAIWLASALLAIPMLFTMGLQNRSGDGTHPGGLVCTPIVDTATVKVVIQVNTFMSFLFPMLVISILNTVAANKLTVMVHQAAEQGRVCTVGTHNGLEHSTFNMTIEPGRVQALRHGVLVLRAVVIAFVVCWLPYHVRRLMFCYISDEQWTTALFDFYHYFYMLTNALAYVSSAINPILYNLVSANFRQVFLSTLACLCPGWRHRRKKRPTFSRKPNSMSSNHAFSTSATRETLY	51
